Holding throughout (test): pull-down
Test [1] deals with His6-GB1 tagged ITK PHTH (C96E/T110I) domain.
In another test the target is ITK PHTH E56A.
The next test has as its target ITK PHTH L51D.

The substance “His6 tagged mouse ITK kinase domain (residues 356-619) (domain or fragment)” gave a disruption of the interaction by 5 μM IP(1,3,4,5)P4 in test [1] greater than 50%. The decrease in binding compared to wild type ITK PHTH in the test with ITK PHTH E56A and with ITK PHTH L51D was 50% each time.

Source of the values: PMC5956896.
